According to patent US20120329716A1 (UNIVERSITY OF MANITOBA, published 2012):

molecular target: T1, Purified human recombinant renin (human, UniProt P00797 67-406); assay: cell-based or functional assay
T1 sequence (looked up): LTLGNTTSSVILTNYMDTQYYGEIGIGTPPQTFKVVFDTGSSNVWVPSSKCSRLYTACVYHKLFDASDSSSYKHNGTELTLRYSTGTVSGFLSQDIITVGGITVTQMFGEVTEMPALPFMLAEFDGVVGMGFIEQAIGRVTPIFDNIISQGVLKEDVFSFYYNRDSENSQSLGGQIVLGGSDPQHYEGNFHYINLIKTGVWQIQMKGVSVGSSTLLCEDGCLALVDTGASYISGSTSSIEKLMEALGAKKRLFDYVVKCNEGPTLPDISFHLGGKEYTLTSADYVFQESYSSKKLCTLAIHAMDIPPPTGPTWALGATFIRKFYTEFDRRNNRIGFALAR

Binder | RENIN INHIBITION %
WLP [SEQ ID NO. 13] | 4.85%
RAAP [SEQ ID NO. 14] | 15.4%
WMP [SEQ ID NO. 15] | 43.4%
HPGAG [SEQ ID NO. 16] | 21.2%
RSPD [SEQ ID NO. 17] | 57.5%
WPHT [SEQ ID NO. 18] | 9.3%
YPRE [SEQ ID NO. 19] | 22.2%
SNILEAA [SEQ ID NO. 20] | 24%
YAGVSLI [SEQ ID NO. 21] | 36%
AHPVAIN [SEQ ID NO. 22] | 43.5%
ADMFPF [SEQ ID NO. 23] | 76.2%
TNPFPF [SEQ ID NO. 24] | 28%
NFLAGPSD [SEQ ID NO. 25] | 6.73%
YKKSVSSESDPF [SEQ ID NO. 26] | 32.4%

Molecular target: T2, Renin substrate 1 (Arg-Glu(EDANS)-Ile-His-Pro-Phe-His-Leu-Val-Ile-His-Thr-Lys(dabcyl)-Arg)
T2 chain: REIHPFHLVIHTKR
Assay: not given

Binder | Michaelis-Menten constant (Km) in the absence of peptide fractions | Michaelis-Menten constant (Km) in the presence of peptide fraction T4 | Michaelis-Menten constant (Km) in the presence of peptide fraction T5
Purified human recombinant renin (protein) LTLGNTTSSVILTNYMDTQYYGEIGIGTPPQTFKVVFDTGSSNVWVPSSKCSRLYTACVYHKLFDASDSSSYKHNGTELTLRYSTGTVSGFLSQDIITVGGITVTQMFGEVTEMPALPFMLAEFDGVVGMGFIEQAIGRVTPIFDNIISQGVLKEDVFSFYYNRDSENSQSLGGQIVLGGSDPQHYEGNFHYINLIKTGVWQIQMKGVSVGSSTLLCEDGCLALVDTGASYISGSTSSIEKLMEALGAKKRLFDYVVKCNEGPTLPDISFHLGGKEYTLTSADYVFQESYSSKKLCTLAIHAMDIPPPTGPTWALGATFIRKFYTEFDRRNNRIGFALAR | 3.8 µM | increased to 6.3 and 6.1 µM, respectively | increased to 6.3 and 6.1 µM, respectively
